Patent US20150017162A1 (OMEROS, published 2015)

B1: scFv clone 17N16 (scFv)
scFv: QVQLQQSGPGLVKPSQTLSLTCAISGDSVSSTSAAWNWIRQSPSRGLEWLGRTYYRSKWYNDYAVSVKSRITINPDTSKNQFSLQLNSVTPEDTAVYYCARDPFGVPFDIWGQGTMVTVSSKLSGSASAPKLEEGEFSEARVSYVLTQPPSVSVAPGQTARITCGGNNIGSKNVHWYQQKPGQAPVLVVYDDSDRPSGIPERFSGSNSGNTATLTVSRVEAGDEADYYCQVWDTTTDHVVFGGGTKLTVLAAAGSEQKLISEEDLNSHHHHHH
B2: scFv clone 17D20 (scFv)
scFv: QVTLKESGPVLVKPTETLTLTCTVSGFSLSRGKMGVSWIRQPPGKALEWLAHIFSSDEKSYRTSLKSRLTISKDTSKNQVVLTMTNMDPVDTATYYCARIRAGGIDYWGQGTLVTVSSKLSGSASAPKLEEGEFSEARVQPVLTQPPSVSVSPGQTASITCSGDKLGDKFAYWYQQKPGHSPVLVIYQDNKRPSGIPGRFSGSNSGNTATLTISGTQAMDEADYYCQAWDSSTAVFGTGTKVTVLAAAGSEQKLISEEDLNSHHHHHH
B3: NimoAb101 (antibody, V domains shown)
VH: EVQLVESGGGLVQPGRSLKLSCLVSGFTFSNFGMNWIRQAPGKGLEWVASISSGGTYIYHADTLKGRFTISRENAKNTLYLQMTSLRSEDTALYYCARGPYHSRYIPYLMDAWGQGASVTVSS
VL: DIQMTQSPGSLCASLGETVTIECRASDDIYSNLAWYQQKPGNSPQLLIFDGNRLADGVPSRFSGSGSGTQYSLKMKSLQFEDVASYFCQQYNNYPLTFGSGTKLEIKR
B4: scFv daughter clone 17N16m_d17N9 (scFv)
chain: QVQLQQSGPGLVKPSQTLSLTCAISGDSVSSTSAAWNWIRQSPSRGLEWLGRTYYRSKWYNDYAVSVKSRITINPDTSKNQFSLQLNSVTPEDTAVYYCARDPFGVPFDIWGQGTMVTVSSSYELIQPPSVSVAPGQTATITCAGDNLGKKRVHWYQQRPGQAPVLVIYDDSDRPSGIPDRFSASNSGNTATLTITRGEAGDEADYYCQVWDIATDHVVFGGGTKLTVLAAAGSEQKLISE

How the values were obtained:
human MASP-2 [1] = molecular target: T1, human MASP-2 (human, UniProt O00187 16-686); test: cell-based or functional assay
human MASP-2 [2] = molecular target: T1, human MASP-2; test: cell-based or functional assay; remark: listed apart in the source

T1 sequence (O00187 16-686): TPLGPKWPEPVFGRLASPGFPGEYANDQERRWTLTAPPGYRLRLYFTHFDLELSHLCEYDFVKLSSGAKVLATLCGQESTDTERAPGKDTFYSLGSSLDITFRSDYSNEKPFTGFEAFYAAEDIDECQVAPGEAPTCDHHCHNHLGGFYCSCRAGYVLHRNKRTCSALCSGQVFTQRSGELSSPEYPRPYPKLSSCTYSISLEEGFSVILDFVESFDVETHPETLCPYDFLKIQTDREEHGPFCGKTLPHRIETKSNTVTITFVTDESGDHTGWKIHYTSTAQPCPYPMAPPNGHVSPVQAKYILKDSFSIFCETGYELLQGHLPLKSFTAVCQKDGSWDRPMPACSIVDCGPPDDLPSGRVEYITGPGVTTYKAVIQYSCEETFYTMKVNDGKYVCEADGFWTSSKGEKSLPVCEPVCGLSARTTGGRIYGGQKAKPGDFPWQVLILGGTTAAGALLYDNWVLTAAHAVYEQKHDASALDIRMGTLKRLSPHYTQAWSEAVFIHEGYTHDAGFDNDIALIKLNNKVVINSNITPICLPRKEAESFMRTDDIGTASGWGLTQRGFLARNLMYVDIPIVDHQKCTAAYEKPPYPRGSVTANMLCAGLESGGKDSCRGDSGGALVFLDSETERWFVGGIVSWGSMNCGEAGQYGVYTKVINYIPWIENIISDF

Binder | IC50, C3 assay, 1% human serum (average value) (human MASP-2 [1]) [nM] | IC50, C4 deposition in full human serum (human MASP-2 [2]) [µg/mL]
B1 | 68 | 
B2 | 38 | 
B3 |  | 0.0318
B4 | 48 | 
